Source: the supplement of paper PMC9112550, “Optimization of the antimicrobial peptide Bac7 by deep mutational scanning” (BMC Biology, 2022)

Tested on: Escherichia coli TOP10
Test: shrunken log2 fold change of peptide-encoding DNA abundance (4.5 h post-induction vs induction); higher = less antimicrobial activity (less host growth inhibition)
Settings: time post-induction: 4.5 h; library: site-saturation at positions 5, 18, 19, 20
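Also: peptides expressed intracellularly from a pBAD plasmid library in pooled LB shake-flask culture, induced with 0.3% L-arabinose, DNA abundance read by NGS, three biological replicates, DESeq2 with apeglm shrinkage.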

Sequence	shrunken log2 fold change
RRIRVRPPRLPRPRPRPHMRPRP	-0.0474
RRIRPRPPRLPRPRPRPFARPRP	0.206
RRIRHRPPRLPRPRPRPLMTPRP	-0.192
RRIRMRPPRLPRPRPRPKWLPRP	0.612
RRIRKRPPRLPRPRPRPMTTPRP	0.31
RRIRNRPPRLPRPRPRPHNFPRP	-0.436
RRIRHRPPRLPRPRPRPETSPRP	0.0165
RRIRRRPPRLPRPRPRPDHMPRP	-0.0178
RRIRFRPPRLPRPRPRPFHDPRP	-0.149
RRIRYRPPRLPRPRPRPDEYPRP	-0.0128
RRIRDRPPRLPRPRPRPKHIPRP	-0.236
RRIRFRPPRLPRPRPRPISPPRP	-0.211
RRIRNRPPRLPRPRPRPDRCPRP	-0.0122
RRIRIRPPRLPRPRPRPAYEPRP	-0.277
RRIRGRPPRLPRPRPRPICSPRP	0.122
RRIRTRPPRLPRPRPRPECDPRP	-0.134
RRIRRRPPRLPRPRPRPAFKPRP	0.291
RRIRGRPPRLPRPRPRPQCPPRP	0.337
RRIRYRPPRLPRPRPRPFIKPRP	-0.263
RRIRTRPPRLPRPRPRPCPPPRP	-0.143
RRIRIRPPRLPRPRPRPTFSPRP	-0.545
RRIRNRPPRLPRPRPRPRTMPRP	0.135
RRIRQRPPRLPRPRPRPCSIPRP	-0.022
RRIRRRPPRLPRPRPRPVYYPRP	-0.223
RRIRMRPPRLPRPRPRPVELPRP	-0.281

Sequence	shrunken log2 fold change
RRIRRRPPRLPRPRPRPMYQPRP	-0.058
RRIRPRPPRLPRPRPRPQTAPRP	0.111
RRIRWRPPRLPRPRPRPVNQPRP	0.0575
RRIRYRPPRLPRPRPRPYSKPRP	-0.124
RRIRQRPPRLPRPRPRPTMVPRP	-0.148
RRIRWRPPRLPRPRPRPYWIPRP	-0.81
RRIRNRPPRLPRPRPRPVPAPRP	0.459
RRIRCRPPRLPRPRPRPWFLPRP	-0.479
RRIRYRPPRLPRPRPRPRSYPRP	-0.879
RRIRRRPPRLPRPRPRPQNCPRP	-0.275
RRIRCRPPRLPRPRPRPWGRPRP	-0.118
RRIRWRPPRLPRPRPRPIACPRP	0.0997
RRIRWRPPRLPRPRPRPVVEPRP	0.0281
RRIRGRPPRLPRPRPRPYEEPRP	0.106
RRIRVRPPRLPRPRPRPKHPPRP	0.28
RRIRRRPPRLPRPRPRPSLRPRP	-0.0199
RRIRVRPPRLPRPRPRPNTKPRP	0.181
RRIRCRPPRLPRPRPRPLSTPRP	-0.229
RRIRCRPPRLPRPRPRPPTSPRP	0.428
RRIRPRPPRLPRPRPRPRDVPRP	0.0755
RRIRDRPPRLPRPRPRPNCWPRP	-0.113
RRIRNRPPRLPRPRPRPKLNPRP	-0.208
RRIRHRPPRLPRPRPRPQRGPRP	-0.0034
RRIRMRPPRLPRPRPRPEKFPRP	-0.000921
RRIRHRPPRLPRPRPRPEGEPRP	0.0139

Sequence	shrunken log2 fold change
RRIRMRPPRLPRPRPRPMIFPRP	0.0369
RRIRCRPPRLPRPRPRPGYGPRP	-0.273
RRIRQRPPRLPRPRPRPMKGPRP	0.0391
RRIRNRPPRLPRPRPRPCQNPRP	-0.835
RRIRPRPPRLPRPRPRPSMVPRP	-0.376
RRIRSRPPRLPRPRPRPGFGPRP	0.463
RRIRDRPPRLPRPRPRPNYTPRP	-0.771
RRIRRRPPRLPRPRPRPIQNPRP	0.0525
RRIRKRPPRLPRPRPRPWWNPRP	0.0316
RRIRMRPPRLPRPRPRPLKMPRP	0.146
RRIRLRPPRLPRPRPRPYGQPRP	-0.0159
RRIRERPPRLPRPRPRPWSGPRP	-0.48
RRIRRRPPRLPRPRPRPQKQPRP	0.338
RRIRSRPPRLPRPRPRPKRMPRP	0.00691
RRIRDRPPRLPRPRPRPVPEPRP	0.252
RRIRMRPPRLPRPRPRPKMRPRP	1.21
RRIRQRPPRLPRPRPRPRTLPRP	0.0409
RRIRYRPPRLPRPRPRPLICPRP	-0.255
RRIRRRPPRLPRPRPRPSVRPRP	0.238
RRIRGRPPRLPRPRPRPYPRPRP	0.162
RRIRNRPPRLPRPRPRPEVHPRP	-0.0167
RRIRIRPPRLPRPRPRPQDEPRP	0.0381
RRIRHRPPRLPRPRPRPKDVPRP	0.0703
RRIRWRPPRLPRPRPRPPRTPRP	0.663
RRIRNRPPRLPRPRPRPDSFPRP	-0.0232

Sequence	shrunken log2 fold change
RRIRSRPPRLPRPRPRPQRPPRP	0.0966
RRIRIRPPRLPRPRPRPTETPRP	0.0225
RRIRERPPRLPRPRPRPQSFPRP	-0.0705
RRIRWRPPRLPRPRPRPHIMPRP	-0.457
RRIRLRPPRLPRPRPRPDIFPRP	-0.282
RRIRFRPPRLPRPRPRPEPEPRP	0.864
RRIRKRPPRLPRPRPRPTQCPRP	0.567
RRIRRRPPRLPRPRPRPHCYPRP	0.0243
RRIRERPPRLPRPRPRPDPCPRP	-0.119
RRIRSRPPRLPRPRPRPFGLPRP	-0.0988
RRIRERPPRLPRPRPRPPARPRP	0.451
RRIRERPPRLPRPRPRPFICPRP	-0.36
RRIRQRPPRLPRPRPRPWVTPRP	-0.219
RRIRRRPPRLPRPRPRPWLNPRP	-0.0295
RRIRIRPPRLPRPRPRPPVKPRP	-0.156
RRIRVRPPRLPRPRPRPHFQPRP	-0.154
RRIRWRPPRLPRPRPRPQMCPRP	0.349
RRIRTRPPRLPRPRPRPFPWPRP	-0.125
RRIRLRPPRLPRPRPRPHCWPRP	0.109
RRIRSRPPRLPRPRPRPVYDPRP	-0.227
RRIRCRPPRLPRPRPRPMPCPRP	-0.688
RRIRRRPPRLPRPRPRPMCQPRP	0.254
RRIRKRPPRLPRPRPRPHWIPRP	-0.0313
RRIRVRPPRLPRPRPRPRSPPRP	0.342
RRIRARPPRLPRPRPRPAVMPRP	0.399

Sequence	shrunken log2 fold change
RRIRDRPPRLPRPRPRPVQMPRP	-0.0835
RRIRRRPPRLPRPRPRPKCKPRP	-0.0255
RRIRIRPPRLPRPRPRPFCAPRP	-0.088
RRIRVRPPRLPRPRPRPDERPRP	0.139
RRIRPRPPRLPRPRPRPAMSPRP	0.128
RRIRTRPPRLPRPRPRPEPMPRP	0.00621
RRIRNRPPRLPRPRPRPMITPRP	-0.0996
RRIRERPPRLPRPRPRPSFEPRP	-0.132
RRIRARPPRLPRPRPRPHSSPRP	-0.137
RRIRMRPPRLPRPRPRPEKHPRP	0.921
RRIRCRPPRLPRPRPRPDGFPRP	-0.333
RRIRGRPPRLPRPRPRPMHKPRP	0.866
RRIRQRPPRLPRPRPRPPDPPRP	0.151
RRIRGRPPRLPRPRPRPIDSPRP	0.00395
RRIRMRPPRLPRPRPRPDMMPRP	0.187
RRIRERPPRLPRPRPRPVCAPRP	0.415
RRIRHRPPRLPRPRPRPHGLPRP	0.15
RRIRERPPRLPRPRPRPHKDPRP	0.144
RRIRLRPPRLPRPRPRPVIDPRP	-0.182
RRIRTRPPRLPRPRPRPEVRPRP	0.0828
RRIRIRPPRLPRPRPRPLGNPRP	-0.19
RRIRHRPPRLPRPRPRPSVHPRP	-0.204
RRIRTRPPRLPRPRPRPRQMPRP	0.641
RRIRPRPPRLPRPRPRPSCYPRP	-0.332
RRIRGRPPRLPRPRPRPQQCPRP	0.13
